Laboratory results published in patent publication US6906033 (dated 2005).
Like-named read-outs stand apart in the source and are kept apart here.

How the values were obtained:
Experiment in all cases: enzyme inhibition
human factor XIIa [1] = biological target: T1, human factor XIIa (human, UniProt P00748 20-615, biotinylated with Biotin Ester (Zymed); sites not stated)
T1 chain: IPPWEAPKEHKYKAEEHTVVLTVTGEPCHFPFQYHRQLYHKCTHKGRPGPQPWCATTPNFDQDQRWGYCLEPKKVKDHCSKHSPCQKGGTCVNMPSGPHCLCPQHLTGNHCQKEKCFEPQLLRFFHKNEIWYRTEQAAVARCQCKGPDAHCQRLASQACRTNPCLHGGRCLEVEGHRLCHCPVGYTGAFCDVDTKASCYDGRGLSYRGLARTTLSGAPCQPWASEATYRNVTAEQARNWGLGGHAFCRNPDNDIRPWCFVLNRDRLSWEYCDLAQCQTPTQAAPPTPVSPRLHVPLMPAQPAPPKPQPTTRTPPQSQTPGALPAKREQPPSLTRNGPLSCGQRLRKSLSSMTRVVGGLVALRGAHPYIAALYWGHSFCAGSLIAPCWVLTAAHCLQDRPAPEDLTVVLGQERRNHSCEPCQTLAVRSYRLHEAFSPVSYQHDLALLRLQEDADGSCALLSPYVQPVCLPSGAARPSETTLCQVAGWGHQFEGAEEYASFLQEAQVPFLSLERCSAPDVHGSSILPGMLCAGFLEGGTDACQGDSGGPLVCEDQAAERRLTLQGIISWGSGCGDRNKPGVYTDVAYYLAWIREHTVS

human plasma kallikrein [2] = biological target: T2, human plasma kallikrein (human, UniProt P03952 20-638)
T2 sequence (P03952 20-638): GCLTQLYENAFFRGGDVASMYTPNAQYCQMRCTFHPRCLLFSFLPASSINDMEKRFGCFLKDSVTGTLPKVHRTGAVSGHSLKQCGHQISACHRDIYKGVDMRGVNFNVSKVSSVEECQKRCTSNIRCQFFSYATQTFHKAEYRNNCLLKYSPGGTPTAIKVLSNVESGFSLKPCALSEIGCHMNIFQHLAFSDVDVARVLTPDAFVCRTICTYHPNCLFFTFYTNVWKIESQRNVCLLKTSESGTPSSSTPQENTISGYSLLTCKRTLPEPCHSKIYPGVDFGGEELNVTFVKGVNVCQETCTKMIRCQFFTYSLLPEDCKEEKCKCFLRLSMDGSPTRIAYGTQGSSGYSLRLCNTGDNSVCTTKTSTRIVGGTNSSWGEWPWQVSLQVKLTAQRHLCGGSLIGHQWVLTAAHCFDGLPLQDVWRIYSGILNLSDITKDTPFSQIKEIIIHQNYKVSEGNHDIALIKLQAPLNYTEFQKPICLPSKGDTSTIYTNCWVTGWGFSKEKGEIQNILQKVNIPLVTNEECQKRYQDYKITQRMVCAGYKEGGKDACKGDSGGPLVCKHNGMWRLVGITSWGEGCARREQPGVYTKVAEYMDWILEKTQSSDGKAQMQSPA

human factor Xa [3] = biological target: T3, human factor Xa (human, UniProt P00742 41-179; P00742 235-488)
T3 chain 1: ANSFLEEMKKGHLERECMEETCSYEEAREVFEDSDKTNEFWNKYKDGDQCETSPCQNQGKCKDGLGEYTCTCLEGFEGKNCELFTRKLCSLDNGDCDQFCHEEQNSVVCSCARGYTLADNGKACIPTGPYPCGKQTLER
T3 chain 2: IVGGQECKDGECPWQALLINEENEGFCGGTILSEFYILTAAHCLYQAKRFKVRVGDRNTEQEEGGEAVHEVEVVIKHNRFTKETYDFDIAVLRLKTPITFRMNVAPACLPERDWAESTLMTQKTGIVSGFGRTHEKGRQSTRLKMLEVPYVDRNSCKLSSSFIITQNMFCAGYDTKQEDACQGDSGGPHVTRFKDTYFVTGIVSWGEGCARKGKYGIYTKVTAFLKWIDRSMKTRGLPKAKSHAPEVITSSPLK

human factor XIIa [4] = biological target: T1, human factor XIIa
human plasma kallikrein [5] = biological target: T2, human plasma kallikrein; remark: listed apart in the source
Plasmin [6] = biological target: Plasmin
Plasmin [7] = biological target: Plasmin; remark: listed apart in the source
human factor Xa [8] = biological target: T3, human factor Xa
human factor Xa [9] = biological target: T3, human factor Xa
human plasma kallikrein [10] = biological target: T2, human plasma kallikrein; remark: listed apart in the source
human factor XIIa [11] = biological target: T1, human factor XIIa
human plasma kallikrein [12] = biological target: T2, human plasma kallikrein; remark: listed apart in the source
Plasmin [13] = biological target: Plasmin; remark: listed apart in the source

B1: TW6202 (protein)
chain: EVVREVCSEQAETGPCRAGIWRWYFDVTEGKCAPFFYGGCGGNRNNFDTEEYCMAVCGSAI
- Ki (human factor XIIa [1]): 1240 nM
- Ki (human plasma kallikrein [2]): 128 nM

B2: DD108 (protein)
chain: EVVREVCSEQAETGPCRAAISRWYFDVTEGKCAPFFYGGCGGNRNNFDTEEYCMAVCGSAI
- Ki (human factor Xa [3]): 123 nM
- Ki (human factor XIIa [4]): 1600 nM
- Ki (human plasma kallikrein [5]): 1.7 nM

B3: DD185 (peptide)
chain: EVVREVCSEQAETGPCRAAIFRWYFDVTEGKCAPFFYGGCGGNRNNFDTEEYCMAVCGSAI
- Ki (Plasmin [6]): 8.71 nM

B4: TW6185 (peptide)
chain: EVVREVCSEQAETGPCRAMHWRWYFDVTEGKCAPFFYGGCGGNRNNFDTEEYCMAVCGSAI
- Ki (Plasmin [7]): 18.6 nM

B5: TW6167 (protein)
chain: EVVREVCSEQAEPGPCRAMISRWYFDVTEGKCAPFFYGGCGGNRNNFDTEEYCMAVCGSAI
- Ki (human factor Xa [3]): 288 nM
- Ki (human factor XIIa [4]): 3640 nM
- Ki (human plasma kallikrein [5]): 61 nM

B6: DD114 (protein)
chain: EVVREVCSEQAETGPCRAAISRWYFDVTEGKCAPFFYGGCRGNRNNFDTEEYCMAVCGSAI
- Ki (human factor XIIa [1]): 224 nM
- Ki (human plasma kallikrein [2]): 0.7 nM

B7: TW6190 (protein)
chain: EVVREVCSEQAETGPCRAAISRWYFDVTEGKCAPFFYGGCYGNRNNFDTEEYCMAVCGSAI
- Ki (human factor Xa [8]): 1400 nM
- Ki (human factor XIIa [1]): 589 nM
- Ki (human plasma kallikrein [2]): 0.83 nM

B8: TW6189 (protein)
chain: EVVREVCSEQAETGPCRAMIWRWYFDVTEGKCAPFFYGGCYGNRNNFDTEEYCMAVCGSAI
- Ki (human factor Xa [9]): 34 nM
- Ki (human plasma kallikrein [10]): 4 nM

B9: BG003 (protein)
chain: EVVREVCSEQAETGPCRAMLHRWYFDVTEGKCAPFFYGGCGGNRNNFDTEEYCMAVCGSAI
- Ki (human factor XIIa [1]): 467 nM
- Ki (human plasma kallikrein [2]): 36 nM

B10: TW6203 (protein)
chain: EVVREVCSEQAETGPCRAGIPRWYFDVTEGKCAPFFYGGCGGNRNNFDTEEYCMAVCGSAI
- Ki (human factor XIIa [1]): 5040 nM
- Ki (human plasma kallikrein [2]): 31.2 nM

B11: TW6188 (protein)
chain: EVVREVCSEQAETGPCRAMIYRWYFDVTEGKCAPFFYGGCYGNRNNFDTEEYCMAVCGSAI
- Ki (human factor Xa [9]): 24 nM
- Ki (human factor XIIa [11]): 419 nM
- Ki (human plasma kallikrein [10]): 4 nM

B12: TW6186 (protein)
chain: EVVREVCSEQAETGPCRAMHSRWYFDVTEGKCAPFFYGGCYGNRNNFDTEEYCMAVCGSAI
- Ki (human factor Xa [9]): 11 nM
- Ki (human factor XIIa [11]): 186 nM
- Ki (human plasma kallikrein [10]): 0.48 nM

B13: TW6183 (protein)
chain: EVVREVCSEQAETGPCRAMHFRWYFDVTEGKCAPFFYGGCGGNRNNFDTEEYCMAVCGSAI
- Ki (human factor Xa [8]): 159 nM
- Ki (human factor XIIa [1]): 12400 nM

B14: TW6175 (protein)
chain: EVVREVCSEQAETGPCRALIFRWYFDVTEGKCAPFFYGGCGGNRNNFDTEEYCMAVCGSAI
- Ki (human factor Xa [8]): 56 nM
- Ki (human factor XIIa [1]): 35 nM

B15: DD110 (protein)
chain: EVVREVCSEQAETGPCRALISRWYFDVTEGKCAPFFYGGCGGNRNNFDTEEYCMAVCGSAI
- Ki (human factor Xa [3]): 55 nM
- Ki (human factor XIIa [4]): 624 nM
- Ki (human plasma kallikrein [5]): 2.1 nM

B16: TW6201 (protein)
chain: EVVREVCSEQAETGPCRAGIYRWYFDVTEGKCAPFFYGGCGGNRNNFDTEEYCMAVCGSAI
- Ki (human factor XIIa [1]): 419 nM
- Ki (human plasma kallikrein [2]): 34.6 nM

B17: TW6187 (protein)
chain: EVVREVCSEQAETGPCRAMIFRWYFDVTEGKCAPFFYGGCYGNRNNFDTEEYCMAVCGSAI
- Ki (human factor Xa [9]): 15 nM
- Ki (human factor XIIa [11]): 92 nM
- Ki (human plasma kallikrein [10]): 3.8 nM

B18: DD109 (protein)
chain: EVVREVCSEQAETGPCRAIISRWYFDVTEGKCAPFFYGGCGGNRNNFDTEEYCMAVCGSAI
- Ki (human factor Xa [3]): 421 nM
- Ki (human factor XIIa [4]): 1680 nM
- Ki (human plasma kallikrein [5]): 9.5 nM

B19: DD113 (protein)
chain: EVVREVCSEQAETGPCRALIPRWYFDVTEGKCAPFFYGGCGGNRNNFDTEEYCMAVCGSAI
- Ki (human factor Xa [8]): 74 nM
- Ki (human factor XIIa [1]): 293 nM
- Ki (human plasma kallikrein [2]): 0.85 nM

B20: TW6169 (protein)
chain: EVVREVCSEQAETGPCRALILRWYFDVTEGKCAPFFYGGCGGNRNNFDTEEYCMAVCGSAI
- Ki (human factor Xa [8]): 111 nM
- Ki (human factor XIIa [1]): 619 nM
- Ki (human plasma kallikrein [2]): 1.2 nM

B21: wild-type KPI (-4→57) (peptide)
chain: LDKREVVREVCSEQAETGPCRAMISRWYFDVTEGKCAPFFYGGCGGNRNNFDTEEYCMAVCGSAI
- Ki (human factor Xa [3]): 161 nM
- Ki (human factor XIIa [4]): 3720 nM
- Ki (human plasma kallikrein [5]): 45 nM
- Ki (human plasma kallikrein [12]): 45 nM

B22: KPI (-4-57) (peptide)
chain: LDKREVVREVCSEQAETGPCRAMISRWYFDVTEGKCAPFFYGGCGGNRNNFDTEEYCMAVCGSAI
- Ki (Plasmin [13]): 34 nM
